In patent US20180118848A1:

Molecular target: human MUC16 (mucin 16) (human)
Experiment: MSD ECL cell binding, RLU ratio OVCAR-3 vs SK-OV-3, […] Ab; NS = ratio <2.5-fold

Ratio anti-MUC16 Binding OVCAR-3/SK-OV-3 | Substance
< 2.5 | hIgG1 Isotype Control Antibody
< 2.5 | mIgG1 Isotype Control Antibody
< 2.5 | mIgG2a Isotype Control Antibody
